Test results from publication PMC2763353.

Assays:
Test in all cases: EMSA
Ets-1(331-440) = molecular target: T1, Ets-1(331-440) (murine, UniProt P27577 331-440)
T1 sequence: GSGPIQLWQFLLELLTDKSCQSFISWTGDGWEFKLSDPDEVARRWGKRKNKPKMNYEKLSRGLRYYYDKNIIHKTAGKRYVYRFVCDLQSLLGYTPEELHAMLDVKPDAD

[1] = molecular target: Pax5(1-149) WT;GABPα(311-430);GABPβ1(1-157) (human;;, UniProt Q02548;Q00422;Q00420 1-149;311-430;1-157, ||)
[2] = molecular target: Pax5(1-149) Q22A;GABPα(311-430);GABPβ1(1-157) (human;;, UniProt Q02548;Q00422;Q00420 1-149;311-430;1-157, Q22A||)
Chain of Pax5(1-149) Q22A;GABPα(311-430);GABPβ1(1-157) (Q02548 1-149 Q22A, chain 1 of 3): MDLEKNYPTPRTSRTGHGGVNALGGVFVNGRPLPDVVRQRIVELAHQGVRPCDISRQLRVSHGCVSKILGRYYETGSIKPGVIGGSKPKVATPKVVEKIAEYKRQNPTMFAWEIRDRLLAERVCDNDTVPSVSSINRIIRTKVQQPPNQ
Chain of Pax5(1-149) Q22A;GABPα(311-430);GABPβ1(1-157) (Q00422 311-430, chain 2 of 3): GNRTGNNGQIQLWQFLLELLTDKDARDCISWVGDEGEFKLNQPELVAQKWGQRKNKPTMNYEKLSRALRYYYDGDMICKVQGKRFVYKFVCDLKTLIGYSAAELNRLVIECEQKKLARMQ
Chain of Pax5(1-149) Q22A;GABPα(311-430);GABPβ1(1-157) (Q00420 1-157, chain 3 of 3): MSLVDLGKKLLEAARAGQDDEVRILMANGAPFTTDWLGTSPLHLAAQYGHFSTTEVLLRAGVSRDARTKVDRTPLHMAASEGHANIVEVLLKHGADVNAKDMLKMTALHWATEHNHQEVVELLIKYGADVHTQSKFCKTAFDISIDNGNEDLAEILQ

[3] = molecular target: Pax5(1-149) WT;Ets-1(280-440) (human;murine, UniProt Q02548;P27577 1-149;280-440, |)
Chain of Pax5(1-149) WT;Ets-1(280-440) (Q02548 1-149, chain 1 of 2, one chain of several): as the sequence (Q02548 1-149 Q22A, chain 1 of 3) above, with A22Q counted along it

[4] = molecular target: Pax5(1-149) Q22A;Ets-1(331-440) (human;murine, UniProt Q02548;P27577 1-149;331-440, Q22A|)
Chain of Pax5(1-149) Q22A;Ets-1(331-440) (Q02548 1-149 Q22A, one chain of several): as the sequence (Q02548 1-149 Q22A, chain 1 of 3) above

[5] = molecular target: Pax5(1-149) Q22A;Ets-1(280-440) (human;murine, UniProt Q02548;P27577 1-149;280-440, Q22A|)
Chain of Pax5(1-149) Q22A;Ets-1(280-440) (Q02548 1-149 Q22A, chain 1 of 2, one chain of several): as the sequence (Q02548 1-149 Q22A, chain 1 of 3) above

[6] = molecular target: Pax5(1-149) WT;Ets-1(331-440) (human;murine, UniProt Q02548;P27577 1-149;331-440, |)
Chain of Pax5(1-149) WT;Ets-1(331-440) (Q02548 1-149, chain 1 of 2, one chain of several): as the sequence (Q02548 1-149 Q22A, chain 1 of 3) above, with A22Q counted along it

[7] = molecular target: Pax5(1-149) Q22A;GABPα(311-430) (human;, UniProt Q02548;Q00422 1-149;311-430, Q22A|)
Chain of Pax5(1-149) Q22A;GABPα(311-430) (Q02548 1-149 Q22A, chain 1 of 2): as the sequence (Q02548 1-149 Q22A, chain 1 of 3) above
Chain of Pax5(1-149) Q22A;GABPα(311-430) (Q00422 311-430, chain 2 of 2): as the sequence (Q00422 311-430, chain 2 of 3) above

Pax5(1-149) WT = Pax5(1-149) WT (human, UniProt Q02548 1-149)
Chain of Pax5(1-149) WT (Q02548 1-149): as the sequence (Q02548 1-149 Q22A, chain 1 of 3) above, with A22Q counted along it

[8] = molecular target: GABPα(311-430);GABPβ1(1-157) (;, UniProt Q00422;Q00420 311-430;1-157, |)
Chain of GABPα(311-430);GABPβ1(1-157) (Q00422 311-430, chain 1 of 2): as the sequence (Q00422 311-430, chain 2 of 3) above
Chain of GABPα(311-430);GABPβ1(1-157) (Q00420 1-157, chain 2 of 2): as the sequence (Q00420 1-157, chain 3 of 3) above

Pax5(1-149) Q22A = Pax5(1-149) Q22A (human, UniProt Q02548 1-149, Q22A)
Chain of Pax5(1-149) Q22A (Q02548 1-149 Q22A): as the sequence (Q02548 1-149 Q22A, chain 1 of 3) above

Ets-1(280-440) = molecular target: T2, Ets-1(280-440) (murine, UniProt P27577 280-440)
T2 sequence: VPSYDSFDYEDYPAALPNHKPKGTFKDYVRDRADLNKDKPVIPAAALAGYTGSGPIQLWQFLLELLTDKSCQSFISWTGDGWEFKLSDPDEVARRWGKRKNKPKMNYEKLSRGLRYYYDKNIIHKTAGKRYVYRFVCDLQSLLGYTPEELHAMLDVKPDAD

[9] = molecular target: Pax5(1-149) WT;GABPα(311-430) (human;, UniProt Q02548;Q00422 1-149;311-430, |)
Chain of Pax5(1-149) WT;GABPα(311-430) (Q02548 1-149, chain 1 of 2): as the sequence (Q02548 1-149 Q22A, chain 1 of 3) above, with A22Q counted along it
Chain of Pax5(1-149) WT;GABPα(311-430) (Q00422 311-430, chain 2 of 2): as the sequence (Q00422 311-430, chain 2 of 3) above

Chain of Pax5(1-149) WT;GABPα(311-430);GABPβ1(1-157) (Q02548 1-149, chain 1 of 3): as the sequence (Q02548 1-149 Q22A, chain 1 of 3) above, with A22Q counted along it
Chain of Pax5(1-149) WT;GABPα(311-430);GABPβ1(1-157) (Q00422 311-430, chain 2 of 3): as the sequence (Q00422 311-430, chain 2 of 3) above
Chain of Pax5(1-149) WT;GABPα(311-430);GABPβ1(1-157) (Q00420 1-157, chain 3 of 3): as the sequence (Q00420 1-157, chain 3 of 3) above

B1: P5-EBS probe (dsDNA)
DNA 1: TCGAAGGGCCACTGGAGCCCATCTCCGGCACGGC
DNA 2: TCGAGCCGTGCCGGAGATGGGCTCCAGTGGCCCT
With B1 as the binder, how does the Kd (Ets-1(331-440)) read?
Its Kd is 136 ± 5.29 nM.

And the Kd [1]?
The Kd was 4.08 ± 0.38 nM.

What about the Kd [2] of the same binder?
The Kd was 3.36 ± 0.14 nM.

What about the Kd [3] of the same binder?
Its Kd is 0.49 ± 0.05 nM.

And the Kd [4]?
Its Kd is 7.89 ± 0.76 nM.

What about the Kd [5] of the same binder?
Its Kd is 162 ± 44.3 nM.

What about the Kd [6] of the same binder?
Its Kd is 0.89 ± 0.14 nM.

And the Kd [7]?
Its Kd is 6.14 ± 5.38 nM.

What about the Kd (Pax5(1-149) WT) of the same binder?
The Kd was 2.4 ± 0.47 nM.

What about the Kd [8] of the same binder?
Its Kd is 234 ± 24.8 nM.

And the Kd (Pax5(1-149) Q22A)?
Its Kd is 1.72 ± 0.37 nM.

Does B1 bind (Ets-1(280-440))?
Result: no binding

What about the Kd [9] of the same binder?
The Kd was 17.8 ± 0.74 nM.
